Drawing on patent US20180271973A1, this text covers Kd for one substance.

For the experiment, the target named is CH505 transmitted/founder (T/F) Env gp120 (HIV-1). Briefly: surface plasmon resonance. A general note: In SPR one partner is held on a chip, and binding of the other changes the refractive index at the surface.

By Kd is commonly meant the constant that tells how readily two partners part at equilibrium. “CH103 UCA (unmutated common ancestor of the CH103 CD4 binding site bnAb lineage) (antibody)” came in with a Kd of 0.2 µM.
